Results: publication PMC3728706
Blank lines part the entries; values can stand above or below the molecule they belong to.

Target: fluorescently labeled peptide derived from the C-terminus of β-catenin
Experiment: fluorescence polarisation

Kd: 25 µM
Molecule: LIN7 PDZ domain (from UniProt O88951 93-175) (domain or fragment)

Kd: 103 µM
Molecule: PDZk7 PDZ domain (domain or fragment)

Kd: 1 µM
Molecule: Magi-1 PDZ domain 6 (domain or fragment)

Kd: 369 µM
Molecule: Grip1 PDZ domain (domain or fragment)

Kd: 79 µM
Molecule: PTP-BL PDZ domain (domain or fragment)

Kd: 20 µM
Molecule: NHERF-1 PDZ domain (domain or fragment)

Kd: 6 µM
Molecule: Erbin PDZ domain (from UniProt Q80TH2 1311-1400) (domain or fragment)

Kd: 342 µM
Molecule: SAP97 PDZ domain (domain or fragment)

Kd: 1 µM
Molecule: Magi-3 PDZ domain (domain or fragment)

Kd: 31 µM
Molecule: PSD95 PDZ domain (domain or fragment)

Kd: 0.6 µM
Molecule: Magi-2 PDZ domain (domain or fragment)

Kd: 100 µM
Molecule: Pard3 PDZ domain (domain or fragment)

Kd: 207 µM
Molecule: PDZk3 PDZ domain (domain or fragment)

Kd: 13 µM
Molecule: Scrib PDZ domain (domain or fragment)

Kd: 9 µM
B1: Shank3 PDZ domain (domain or fragment)
chain: VAILQKRDHEGFGFVLRGAKAETPIEEFTPTPAFPALQYLESVDVEGVAWRAGLRTGDFLIEVNGVNVVKVGHKQVVGLIRQGGNRLVMKVVSVT

Kd: 1 µM
B2: Tiam2 PDZ domain (domain or fragment)
chain: DVQLTKTGDMTDFGFAVTVQVDEHQHLNRIFISDVLPDSLAYGGGLRKGNEITSLNGEPVSDLDIQQMEALFSEKSVGLTLVARPVT

Kd: 276 µM
B3: Synip PDZ domain (domain or fragment)
chain: AFRVITVTKETGLGLKILGGINRNEGPLVYIHEVIPGGDCYKDGRLKPGDQLVSINKESMIGVSFEEAKSIITRAKLRSESPWEIAF

Kd: 333 µM
B4: PDZ11 PDZ domain (domain or fragment)
chain: IVTLKKPPGAQLGFNIRGGKASQLGIFISKVIPDSDAHRAGLQEGDQVLAVNDVDFQDIEHSKAVEILKTAREISMRVRFFPY

Kd: 0.3 µM
B5: Tip1 PDZ domain (domain or fragment)
chain: RVEIHKLRQGENLILGFSIGGGIDQDPSQNPFSEDKTDKGIYVTRVSEGGPAEIAGLQIGDKIMQVNGWDMTMVTHDQARKRLTKRSEEVVRLLVTRQ
